Data taken from paper PMC4145799.

What was measured:
[1] = target: inducible lysine decarboxylase LdcI (Escherichia coli) (UniProt P0A9H3); experiment: cryo-EM structure; LdcI-LARA complex, 7.5 Å; 7.3 µM LdcI with 73 µM LARA (1:10), 15 min at room temperature, 50 mM Mes pH 6.5, 100 mM NaCl, 0.2 mM PLP, 1 mM DTT, 0.01% glutaraldehyde; D5 symmetry imposed
LdcI (Escherichia coli) = LdcI (Escherichia coli) (UniProt P0A9H3); conditions: cited from earlier work
Chain of LdcI (Escherichia coli) (P0A9H3 whole entry): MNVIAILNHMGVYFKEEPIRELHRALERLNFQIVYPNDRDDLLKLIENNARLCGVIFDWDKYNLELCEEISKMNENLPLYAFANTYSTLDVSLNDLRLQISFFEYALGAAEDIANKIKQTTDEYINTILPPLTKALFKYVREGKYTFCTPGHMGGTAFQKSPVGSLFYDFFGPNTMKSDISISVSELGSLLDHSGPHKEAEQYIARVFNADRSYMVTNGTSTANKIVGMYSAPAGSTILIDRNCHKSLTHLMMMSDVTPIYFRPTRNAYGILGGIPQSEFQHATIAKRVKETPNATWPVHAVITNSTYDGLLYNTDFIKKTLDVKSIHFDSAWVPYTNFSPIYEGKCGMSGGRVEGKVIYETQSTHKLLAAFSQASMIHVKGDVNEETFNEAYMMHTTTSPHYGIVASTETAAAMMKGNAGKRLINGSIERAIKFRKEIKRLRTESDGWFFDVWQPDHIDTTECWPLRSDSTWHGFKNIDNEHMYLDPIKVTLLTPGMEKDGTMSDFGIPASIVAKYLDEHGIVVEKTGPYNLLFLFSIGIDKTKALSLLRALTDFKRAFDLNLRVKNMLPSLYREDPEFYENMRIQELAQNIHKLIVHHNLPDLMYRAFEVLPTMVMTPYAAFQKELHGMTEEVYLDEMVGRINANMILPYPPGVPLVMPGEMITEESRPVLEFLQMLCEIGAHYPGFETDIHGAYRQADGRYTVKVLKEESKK

Chain of RavA (P31473 whole entry): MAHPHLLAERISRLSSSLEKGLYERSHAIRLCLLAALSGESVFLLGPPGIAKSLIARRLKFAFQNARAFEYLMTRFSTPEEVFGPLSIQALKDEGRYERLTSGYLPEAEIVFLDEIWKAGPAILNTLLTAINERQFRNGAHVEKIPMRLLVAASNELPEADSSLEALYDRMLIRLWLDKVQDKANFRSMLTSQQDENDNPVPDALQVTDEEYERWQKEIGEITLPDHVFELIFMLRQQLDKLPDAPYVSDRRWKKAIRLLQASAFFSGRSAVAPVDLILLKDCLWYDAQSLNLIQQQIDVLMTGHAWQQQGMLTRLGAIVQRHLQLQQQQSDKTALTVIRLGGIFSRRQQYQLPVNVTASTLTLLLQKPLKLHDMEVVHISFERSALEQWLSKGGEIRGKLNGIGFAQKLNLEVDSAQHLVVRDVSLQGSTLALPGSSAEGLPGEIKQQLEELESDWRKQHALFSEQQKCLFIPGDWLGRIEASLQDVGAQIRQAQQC
Chain of inducible lysine decarboxylase LdcI (Escherichia coli) (P0A9H3 whole entry): as the sequence (P0A9H3 whole entry) above

Row | Substance | stoichiometry N (LARA domain per LdcI protomer) [1] | Kd (LdcI (Escherichia coli)) [nM]
1 | LARA domain of RavA (LdcI associating domain of RavA) (from UniProt P31473 1-498) (domain or fragment) | 1 | –
2 | RavA (from UniProt P31473) | – | 20
